Values belong to the substance of their own block, whether it stands above or below them.
Molecular target: rat brain farnesyl:protein transferase (rat) (UniProt Q04631)
Assay: cell-based or functional assay

Concentration For 50% Inhibition: 100 µM
Substance: CAIL (COOH-terminal tetrapeptide of γ-Subunit of G protein)

fold decline in affinity: > 50 fold
Substance: CVIM with glutamic acid at the A2 position (CVEM) (peptide)

50% inhibition: > 40 µM
Substance: CVIM with glutamic acid at the X position (CVIE) (peptide)

50% inhibition: 8 µM
Substance: CVIM with glycine at the A2 position (CVGM) (peptide)

50% inhibition: > 40 µM
Substance: CVIM with glycine at the X position (CVIG) (peptide)

fold decline in affinity: > 50 fold
fold decrease in affinity against CVIM, estimated by the concentration required for 50% inhibition: > 30 fold
Substance: CVIM with lysine at the A2 position (CVKM) (peptide)

50% inhibition: > 40 µM
fold decrease in affinity against CVIM, estimated by the concentration required for 50% inhibition: > 30 fold
Substance: CVIM with lysine at the X position (CVIK) (peptide)

Reference: patent US6936431
